# According to the Human Domainome abundance scans (Beltran et al. 2025):
# ± gives the uncertainty stated by the source.
# B1: Tumor protein p73, residues 487 to 549; numbered along this chain, O15350 (parent)
# chain: YHADPSLVSFLTGLGCPNCIEYFTSQGLQSIYHLQNLTIEDLGALKIPEQYRMTIWRGLQDLK
# Variants of: B1
# Assay: abundance fitness (aPCA) (normalised: wild type 0, dead -1); higher = more abundant; growth selection in yeast, the domain comes from the species named
# Settings: Homo sapiens
row,Variant,abundance fitness
1,YHADPSLVSFLTGLGCPNCIEYFTSQTLQSIYHLQNLTIEDLGALKIPEQYRMTIWRGLQDLK [G27T],-0.172 ± 0.075
2,YHADPSLVSFLTGLGCPNCIEYFTSQPLQSIYHLQNLTIEDLGALKIPEQYRMTIWRGLQDLK [G27P],-0.367 ± 0.065
3,YHADPSLVSFLTGLGCPNCIEYFTSQDLQSIYHLQNLTIEDLGALKIPEQYRMTIWRGLQDLK [G27D],0.06 ± 0.044
4,YHADPSLVSFLTGLGCPNCIEYFTSQHLQSIYHLQNLTIEDLGALKIPEQYRMTIWRGLQDLK [G27H],-0.004 ± 0.053
5,YHADPSLVSFLTGLGCPNCIEYFTSQCLQSIYHLQNLTIEDLGALKIPEQYRMTIWRGLQDLK [G27C],-0.448 ± 0.059
6,YHADPSLVSFLTGLGCPNCIEYFTSQVLQSIYHLQNLTIEDLGALKIPEQYRMTIWRGLQDLK [G27V],-0.61 ± 0.084
7,YHADPSLVSFLTGLGCPNCIEYFTSQSLQSIYHLQNLTIEDLGALKIPEQYRMTIWRGLQDLK [G27S],-0.07 ± 0.035
8,YHADPSLVSFLTGLGCPNCIEYFTSQRLQSIYHLQNLTIEDLGALKIPEQYRMTIWRGLQDLK [G27R],-0.024 ± 0.025
9,YHADPSLVSFLTGLGCPNCIEYFTSQQLQSIYHLQNLTIEDLGALKIPEQYRMTIWRGLQDLK [G27Q],-0.05 ± 0.051
10,YHADPSLVSFLTGLGCPNCIEYFTSQKLQSIYHLQNLTIEDLGALKIPEQYRMTIWRGLQDLK [G27K],-0.089 ± 0.043
11,YHADPSLVSFLTGLGCPNCIEYFTSQLLQSIYHLQNLTIEDLGALKIPEQYRMTIWRGLQDLK [G27L],-1.02 ± 0.1
12,YHADPSLVSFLTGLGCPNCIEYFTSQGLQVIYHLQNLTIEDLGALKIPEQYRMTIWRGLQDLK [S30V],-0.521 ± 0.05
13,YHADPSLVSFLTGLGCPNCIEYFTSQGLQYIYHLQNLTIEDLGALKIPEQYRMTIWRGLQDLK [S30Y],-0.016 ± 0.051
14,YHADPSLVSFLTGLGCPNCIEYFTSQGLQTIYHLQNLTIEDLGALKIPEQYRMTIWRGLQDLK [S30T],0.085 ± 0.073
15,YHADPSLVSFLTGLGCPNCIEYFTSQGLQHIYHLQNLTIEDLGALKIPEQYRMTIWRGLQDLK [S30H],-0.027 ± 0.065
16,YHADPSLVSFLTGLGCPNCIEYFTSQGLQQIYHLQNLTIEDLGALKIPEQYRMTIWRGLQDLK [S30Q],0.115 ± 0.041
17,YHADPSLVSFLTGLGCPNCIEYFTSQGLQFIYHLQNLTIEDLGALKIPEQYRMTIWRGLQDLK [S30F],-0.423 ± 0.079
18,YHADPSLVSFLTGLGCPNCIEYFTSQGLQPIYHLQNLTIEDLGALKIPEQYRMTIWRGLQDLK [S30P],-0.629 ± 0.094
19,YHADPSLVSFLTGLGCPNCIEYFTSQGLQRIYHLQNLTIEDLGALKIPEQYRMTIWRGLQDLK [S30R],-0.043 ± 0.025
20,YHADPSLVSFLTGLGCPNCIEYFTSQGLQWIYHLQNLTIEDLGALKIPEQYRMTIWRGLQDLK [S30W],-0.817 ± 0.085
21,YHADPSLVSFLTGLGCPNCIEYFTSQGLQMIYHLQNLTIEDLGALKIPEQYRMTIWRGLQDLK [S30M],-0.094 ± 0.22
22,YHADPSLVSFLTGLGCPNCIEYFTSQGLQIIYHLQNLTIEDLGALKIPEQYRMTIWRGLQDLK [S30I],-1.01 ± 0.27

row,Variant,abundance fitness
1,YHADPSLVSFLTGLGCPNCIEYFTSQGLQGIYHLQNLTIEDLGALKIPEQYRMTIWRGLQDLK [S30G],-0.086 ± 0.03
2,YHADPSLVSFLTGLGCPNCIEYFTSQGLQNIYHLQNLTIEDLGALKIPEQYRMTIWRGLQDLK [S30N],0.025 ± 0.055
3,YHADPSLVSFLTGLGCPNCIEYFTSQGLQKIYHLQNLTIEDLGALKIPEQYRMTIWRGLQDLK [S30K],-0.03 ± 0.083
4,YHADPSLVSFLTGLGCPNCIEYFTSQGLQCIYHLQNLTIEDLGALKIPEQYRMTIWRGLQDLK [S30C],-0.062 ± 0.04
5,YHADPSLVSFLTGLGCPNCIEYFTSQGLLSIYHLQNLTIEDLGALKIPEQYRMTIWRGLQDLK [Q29L],0.044 ± 0.028
6,YHADPSLVSFLTGLGCPNCIEYFTSQGLHSIYHLQNLTIEDLGALKIPEQYRMTIWRGLQDLK [Q29H],0.102 ± 0.076
7,YHADPSLVSFLTGLGCPNCIEYFTSQGLKSIYHLQNLTIEDLGALKIPEQYRMTIWRGLQDLK [Q29K],0.05 ± 0.035
8,YHADPSLVSFLTGLGCPNCIEYFTSQGLVSIYHLQNLTIEDLGALKIPEQYRMTIWRGLQDLK [Q29V],-0.016 ± 0.031
9,YHADPSLVSFLTGLGCPNCIEYFTSQGLISIYHLQNLTIEDLGALKIPEQYRMTIWRGLQDLK [Q29I],0.142 ± 0.06
10,YHADPSLVSFLTGLGCPNCIEYFTSQGLTSIYHLQNLTIEDLGALKIPEQYRMTIWRGLQDLK [Q29T],0.066 ± 0.04
11,YHADPSLVSFLTGLGCPNCIEYFTSQGLMSIYHLQNLTIEDLGALKIPEQYRMTIWRGLQDLK [Q29M],0.03 ± 0.04
12,YHADPSLVSFLTGLGCPNCIEYFTSQGLNSIYHLQNLTIEDLGALKIPEQYRMTIWRGLQDLK [Q29N],-0.108 ± 0.21
13,YHADPSLVSFLTGLGCPNCIEYFTSQGLWSIYHLQNLTIEDLGALKIPEQYRMTIWRGLQDLK [Q29W],-0.139 ± 0.035
14,YHADPSLVSFLTGLGCPNCIEYFTSQGLESIYHLQNLTIEDLGALKIPEQYRMTIWRGLQDLK [Q29E],0.05 ± 0.038
15,YHADPSLVSFLTGLGCPNCIEYFTSQGLPSIYHLQNLTIEDLGALKIPEQYRMTIWRGLQDLK [Q29P],0.006 ± 0.037
16,YHADPSLVSFLTGLGCPNCIEYFTSQGLGSIYHLQNLTIEDLGALKIPEQYRMTIWRGLQDLK [Q29G],-0.006 ± 0.03
17,YHADPSLVSFLTGLGCPNCIEYFTSQGLSSIYHLQNLTIEDLGALKIPEQYRMTIWRGLQDLK [Q29S],0.053 ± 0.033
18,YHADPSLVSFLTGLGCPNCIEYFTSQGLFSIYHLQNLTIEDLGALKIPEQYRMTIWRGLQDLK [Q29F],-0.005 ± 0.056
19,YHADPSLVSFLTGLGCPNCIEYFTSQGLRSIYHLQNLTIEDLGALKIPEQYRMTIWRGLQDLK [Q29R],-0.063 ± 0.028
20,YHADPSLVSFLTGLGCPNCIEYFTSQGLASIYHLQNLTIEDLGALKIPEQYRMTIWRGLQDLK [Q29A],-0.047 ± 0.037
21,YHADPSLVSFLTGLGCPNCIEYFTSQGLDSIYHLQNLTIEDLGALKIPEQYRMTIWRGLQDLK [Q29D],0.089 ± 0.089
